This is an account of results in the supplement of paper PMC7125110.

± gives the standard error. This sample holds only a part of the variants without activity.

To fix the notation:
B1: glmS ribozyme (parent)
chain: AUAAAAGCGCCAGAACUACAGAAAUGUAGUUGACGAGGAGGAGGUUUAUCGAAUUUUCGGCGGAUGCCUCCAAA

Conditions in all cases: with glucosamine-6-phosphate
Series [1] covers variants of B1. In words: self-cleavage kobs at 640 uM GlcN6P; higher = faster cleavage; RNA array. The procedure, abridged:
(§1)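 A hybridised Cy3 probe tracked barcoded ribozyme variants, transcribed in situ by E. coli RNA polymerase on sequenced MiSeq chips, at 37 °C. The variants received 40 μM to 10 mM glucosamine-6-phosphate in HEPES/KCl/Mg(OAc)2 buffer. kobs came from decay fits and kcat and KM from weighted Michaelis–Menten fits.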

The variants in series [2] derive from B1. The experiment in a line: self-cleavage kobs at 160 uM GlcN6P; higher = faster cleavage; RNA array. The procedure, abridged: as §1
Variants of B1 are the subject of series [3]. In words: self-cleavage kobs at 2500 uM GlcN6P; higher = faster cleavage; RNA array. The essentials:
as §1

In series [4] the parent is B1. In words: self-cleavage kobs at 10000 uM GlcN6P; higher = faster cleavage; RNA array. The procedure, abridged: as §1

On to G13A A14G G29C C50G, for which, in series [1], the “self-cleavage kobs at 640 uM GlcN6P” value worked out at 0.000185 ± 6.9e-05 s⁻¹. In the case of G32U G41U G60A, the “self-cleavage kobs at 160 uM GlcN6P” value in series [2] is less than 1e-05 s⁻¹. Moreover, the “self-cleavage kobs at 2500 uM GlcN6P” value in series [3] was less than 1e-05 s⁻¹. With G7U C61G C67A, the “self-cleavage kobs at 640 uM GlcN6P” value in series [1] worked out at 0.000105 ± 4.6e-05 s⁻¹. Besides, the “self-cleavage kobs at 2500 uM GlcN6P” value in series [3] came to 0.00214 ± 0.00087 s⁻¹.

C34A G44C C58U: the “self-cleavage kobs at 640 uM GlcN6P” value in series [1] was less than 1e-05 s⁻¹. Further, the “self-cleavage kobs at 2500 uM GlcN6P” value in series [3] was less than 1e-05 s⁻¹. As to G9A G38A G51A, in series [2], the “self-cleavage kobs at 160 uM GlcN6P” value is less than 1e-05 s⁻¹. In addition, the “self-cleavage kobs at 640 uM GlcN6P” value in series [1] was less than 1e-05 s⁻¹. Further, the “self-cleavage kobs at 2500 uM GlcN6P” value in series [3] was less than 1e-05 s⁻¹. Take G35U G40U G63U C71G: the “self-cleavage kobs at 640 uM GlcN6P” value in series [1] is less than 1e-05 s⁻¹.

Take U45G U47A A52G C68G: in series [1], the “self-cleavage kobs at 640 uM GlcN6P” value was less than 1e-05 s⁻¹.

A42U U47A U54C: the “self-cleavage kobs at 640 uM GlcN6P” value in series [1] was found to be 3.85e-05 ± 9.6e-06 s⁻¹. Consider U47A A48C, for which the “self-cleavage kobs at 640 uM GlcN6P” value in series [1] was 0.000145 ± 2.2e-05 s⁻¹. In addition, the “self-cleavage kobs at 2500 uM GlcN6P” value in series [3] was determined as 0.000222 ± 3.6e-05 s⁻¹. In addition, in series [4], the “self-cleavage kobs at 10000 uM GlcN6P” value was 0.000561 ± 0.0001 s⁻¹. C16U A36C G38A: in series [1], the “self-cleavage kobs at 640 uM GlcN6P” value was less than 1e-05 s⁻¹. Further, in series [4], the “self-cleavage kobs at 10000 uM GlcN6P” value is less than 1e-05 s⁻¹. Take A6U G13U G37U A48U U69G: in series [1], the “self-cleavage kobs at 640 uM GlcN6P” value came to 9.26e-05 ± 2.7e-05 s⁻¹.

For U31A A53G U65A C70A, in series [1], the “self-cleavage kobs at 640 uM GlcN6P” value is 6.1e-05 ± 2.4e-05 s⁻¹. Still for that read-out and setting: to A6C G13C U47G A48U U65A belongs less than 1e-05 s⁻¹. With C8G C10G A12U A14G G43A C58U, in series [1], the “self-cleavage kobs at 640 uM GlcN6P” value was less than 1e-05 s⁻¹. In the case of U46C G60U, in series [1], the “self-cleavage kobs at 640 uM GlcN6P” value is less than 1e-05 s⁻¹. Also, the “self-cleavage kobs at 2500 uM GlcN6P” value in series [3] is less than 1e-05 s⁻¹.

Regarding C16G G43A, in series [2], the “self-cleavage kobs at 160 uM GlcN6P” value is less than 1e-05 s⁻¹. In addition, the “self-cleavage kobs at 640 uM GlcN6P” value in series [1] was less than 1e-05 s⁻¹. Regarding C8U U30C G59U, in series [2], the “self-cleavage kobs at 160 uM GlcN6P” value was less than 1e-05 s⁻¹. For the same variant, the “self-cleavage kobs at 640 uM GlcN6P” value in series [1] was less than 1e-05 s⁻¹. Also, the “self-cleavage kobs at 2500 uM GlcN6P” value in series [3] is less than 1e-05 s⁻¹.

Take C16A A36U A42G A48G G51U U54G: the “self-cleavage kobs at 640 uM GlcN6P” value in series [1] is less than 1e-05 s⁻¹. In addition, the “self-cleavage kobs at 2500 uM GlcN6P” value in series [3] is less than 1e-05 s⁻¹. On to A6C A39U G41C A52U, for which the “self-cleavage kobs at 640 uM GlcN6P” value in series [1] is less than 1e-05 s⁻¹. Further, in series [3], the “self-cleavage kobs at 2500 uM GlcN6P” value is less than 1e-05 s⁻¹. Turning to G29C A53G C68A, the “self-cleavage kobs at 640 uM GlcN6P” value in series [1] came to 0.000139 ± 5.9e-05 s⁻¹. Also, in series [3], the “self-cleavage kobs at 2500 uM GlcN6P” value was 9.57e-05 ± 3.7e-05 s⁻¹. In the same order, the values of U45A C58A C71U are 0.000102 ± 2.9e-05 s⁻¹ and 0.000293 ± 8.3e-05 s⁻¹.

On to A6U A12G A48U G59U G62A, for which the “self-cleavage kobs at 160 uM GlcN6P” value in series [2] is less than 1e-05 s⁻¹. Turning to G60A C68G, in series [2], the “self-cleavage kobs at 160 uM GlcN6P” value was 8.43e-05 ± 3.9e-05 s⁻¹. For the same variant, the “self-cleavage kobs at 640 uM GlcN6P” value in series [1] was 7.21e-05 ± 1.6e-05 s⁻¹. In addition, the “self-cleavage kobs at 2500 uM GlcN6P” value in series [3] worked out at 6.95e-05 ± 2.5e-05 s⁻¹. For the variant G38C G40U U46A, in series [1], the “self-cleavage kobs at 640 uM GlcN6P” value is less than 1e-05 s⁻¹. Take G26A C70A: the “self-cleavage kobs at 160 uM GlcN6P” value in series [2] came to 0.000106 ± 2.6e-05 s⁻¹. For the variant G43C G51U C61G, the “self-cleavage kobs at 640 uM GlcN6P” value in series [1] was less than 1e-05 s⁻¹. In addition, in series [3], the “self-cleavage kobs at 2500 uM GlcN6P” value is less than 1e-05 s⁻¹. For A53U G62U, the “self-cleavage kobs at 640 uM GlcN6P” value in series [1] is less than 1e-05 s⁻¹. For the same variant, in series [3], the “self-cleavage kobs at 2500 uM GlcN6P” value was less than 1e-05 s⁻¹. For the same variant, the “self-cleavage kobs at 10000 uM GlcN6P” value in series [4] is less than 1e-05 s⁻¹. Take U31A C61G: in series [2], the “self-cleavage kobs at 160 uM GlcN6P” value is less than 1e-05 s⁻¹. Also, the “self-cleavage kobs at 10000 uM GlcN6P” value in series [4] was less than 1e-05 s⁻¹. Consider G35A G51A C58U, for which, in series [1], the “self-cleavage kobs at 640 uM GlcN6P” value was less than 1e-05 s⁻¹. Regarding A12C G26A G51U A53G C68G, the “self-cleavage kobs at 640 uM GlcN6P” value in series [1] amounted to 0.000191 ± 5.2e-05 s⁻¹. For the same variant, in series [3], the “self-cleavage kobs at 2500 uM GlcN6P” value is 0.000139 ± 4.6e-05 s⁻¹. For G37A U54G U69A the same measures were 0.000103 ± 2.5e-05 s⁻¹ and 5.96e-05 ± 2.2e-05 s⁻¹.
